Test results published in patent US20220048967A1 (published 2022).
Substitutions are numbered along the chain they refer to. Numbered stars: 1 amine (or outer) side, 2 acyl side, 3 side chain; on linkers, the order of the positions; unused ones are H or OH. Square brackets hold non-standard residues; d marks the D form. Side chains are listed from the residue outwards. Ends that are not written are not given here. * marks the point of attachment. C20 diacid = O=C(O)CCCCCCCCCCCCCCCCCCC(=O)*; γGlu = O=C(O)[C@H](CCC(=O)[*:2])N[*:1]; αMeL = CC(C)C[C@](C)(N)C(=O)O; Dab = NCC[C@H](N)C(=O)O; Dap = NC[C@H](N)C(=O)O; AEEA = NCCOCCOCC(=O)O; Aib = CC(C)(N)C(=O)O

B1: Example 332 (peptide)
peptide: YXEGTFTSDYSIXLDEKAQXAFIEYLIAGGPSSGAPPPS
modifications: Aib2, αMeL13, (2-[2-(2-Amino-ethoxy)-ethoxy]-acetyl)2-(γ-Glu)-CO-(CH2)18-CO2H on K17, Aib20, C-terminal NH2
B2: Example 338 (peptide)
peptide: B1 peptide with Y1F, E16K, A21E
modifications: not fully specified; Aib2, αMeL13, (2-[2-(2-Amino-ethoxy)-ethoxy]-acetyl)2-(γ-Glu)-CO-(CH2)18-CO2H on K17, Aib20, C-terminal NH2
B3: Example 333 (peptide)
peptide: B1 peptide with E16K, A21E, A28E
modifications: not fully specified; Aib2, αMeL13, (2-[2-(2-Amino-ethoxy)-ethoxy]-acetyl)2-(γ-Glu)-CO-(CH2)18-CO2H on K17, Aib20, C-terminal NH2
B4: Example 334 (peptide)
peptide: B1 peptide with Y1X, E16K, A28E
modifications: not fully specified; D-Tyr1, Aib2, αMeL13, (2-[2-(2-Amino-ethoxy)-ethoxy]-acetyl)2-(γ-Glu)-CO-(CH2)18-CO2H on K17, Aib20, C-terminal NH2
B5: Example 346 (peptide)
peptide: B1 peptide with Y1X, E16X
modifications: D-Tyr1, Aib2, αMeL13, Orn16, (2-[2-(2-Amino-ethoxy)-ethoxy]-acetyl)2-(γ-Glu)-CO-(CH2)18-CO2H on K17, Aib20, C-terminal NH2
B6: Example 349 (peptide)
peptide: B1 peptide with Y1X, E16X, A21E
modifications: D-Tyr1, Aib2, αMeL13, Orn16, (2-[2-(2-Amino-ethoxy)-ethoxy]-acetyl)2-(γ-Glu)-CO-(CH2)18-CO2H on K17, Aib20, C-terminal NH2
B7: Example 344 (peptide)
peptide: B1 peptide with A21D
modifications: Aib2, αMeL13, (2-[2-(2-Amino-ethoxy)-ethoxy]-acetyl)2-(γ-Glu)-CO-(CH2)18-CO2H on K17, Aib20, C-terminal NH2
B8: Example 343 (peptide)
peptide: B1 peptide with E24X
modifications: not fully specified; Aib2, αMeL13, (2-[2-(2-Amino-ethoxy)-ethoxy]-acetyl)2-(γ-Glu)-CO-(CH2)18-CO2H on K17, Aib20, D-Glu24, C-terminal NH2
B9: Example 341 (peptide)
peptide: B1 peptide with Y1X
modifications: not fully specified; D-Tyr1, Aib2, αMeL13, (2-[2-(2-Amino-ethoxy)-ethoxy]-acetyl)2-(γ-Glu)-CO-(CH2)18-CO2H on K17, Aib20, C-terminal NH2
B10: Example 340 (peptide)
peptide: B1 peptide with Y1X, E16K
modifications: not fully specified; D-Tyr1, Aib2, αMeL13, (2-[2-(2-Amino-ethoxy)-ethoxy]-acetyl)2-(γ-Glu)-CO-(CH2)18-CO2H on K17, Aib20, C-terminal NH2
B11: Example 339 (peptide)
peptide: B1 peptide with E16K, A21E
modifications: not fully specified; Aib2, αMeL13, (2-[2-(2-Amino-ethoxy)-ethoxy]-acetyl)-(γ-Glu)-CO-(CH2)18-CO2H on K17, Aib20, C-terminal NH2
B12: Example 342 (peptide)
peptide: B1 peptide with Y1X, A21E
modifications: not fully specified; D-Tyr1, Aib2, αMeL13, (2-[2-(2-Amino-ethoxy)-ethoxy]-acetyl)2-(γ-Glu)-CO-(CH2)18-CO2H on K17, Aib20, C-terminal NH2
B13: Example 337 (peptide)
peptide: B1 peptide with Y1F, E16K
modifications: not fully specified; Aib2, αMeL13, (2-[2-(2-Amino-ethoxy)-ethoxy]-acetyl)2-(γ-Glu)-CO-(CH2)18-CO2H on K17, Aib20, C-terminal NH2
B14: Example 347 (peptide)
peptide: [dY][Aib]EGTFTSDYSI[αMeL]LD[Dab]K([AEEA-AEEA-γGlu-C20 diacid])AQ[Aib]AFIEYLIAGGPSSGAPPPS-NH2
modifications: N-terminus assumed
SMILES: CC[C@H](C)[C@H](NC(=O)[C@H](CC(C)C)NC(=O)[C@H](Cc1ccc(O)cc1)NC(=O)[C@H](CCC(=O)O)NC(=O)[C@@H](NC(=O)[C@H](Cc1ccccc1)NC(=O)[C@H](C)NC(=O)C(C)(C)NC(=O)[C@H](CCC(N)=O)NC(=O)[C@H](C)NC(=O)[C@H](CCCCNC(=O)COCCOCCNC(=O)COCCOCCNC(=O)CC[C@H](NC(=O)CCCCCCCCCCCCCCCCCCC(=O)O)C(=O)O)NC(=O)[C@H](CCN)NC(=O)[C@H](CC(=O)O)NC(=O)[C@H](CC(C)C)NC(=O)[C@](C)(CC(C)C)NC(=O)[C@@H](NC(=O)[C@H](CO)NC(=O)[C@H](Cc1ccc(O)cc1)NC(=O)[C@H](CC(=O)O)NC(=O)[C@H](CO)NC(=O)[C@@H](NC(=O)[C@H](Cc1ccccc1)NC(=O)[C@@H](NC(=O)CNC(=O)[C@H](CCC(=O)O)NC(=O)C(C)(C)NC(=O)[C@H](N)Cc1ccc(O)cc1)[C@@H](C)O)[C@@H](C)O)[C@@H](C)CC)[C@@H](C)CC)C(=O)N[C@@H](C)C(=O)NCC(=O)NCC(=O)N1CCC[C@H]1C(=O)N[C@@H](CO)C(=O)N[C@@H](CO)C(=O)NCC(=O)N[C@@H](C)C(=O)N1CCC[C@H]1C(=O)N1CCC[C@H]1C(=O)N1CCC[C@H]1C(=O)N[C@@H](CO)C(N)=O
B15: Example 348 (peptide)
peptide: [dY][Aib]EGTFTSDYSI[αMeL]LD[Dap]K([AEEA-AEEA-γGlu-C20 diacid])AQ[Aib]AFIEYLIAGGPSSGAPPPS-NH2
modifications: N-terminus assumed
SMILES: CC[C@H](C)[C@H](NC(=O)[C@H](CC(C)C)NC(=O)[C@H](Cc1ccc(O)cc1)NC(=O)[C@H](CCC(=O)O)NC(=O)[C@@H](NC(=O)[C@H](Cc1ccccc1)NC(=O)[C@H](C)NC(=O)C(C)(C)NC(=O)[C@H](CCC(N)=O)NC(=O)[C@H](C)NC(=O)[C@H](CCCCNC(=O)COCCOCCNC(=O)COCCOCCNC(=O)CC[C@H](NC(=O)CCCCCCCCCCCCCCCCCCC(=O)O)C(=O)O)NC(=O)[C@H](CN)NC(=O)[C@H](CC(=O)O)NC(=O)[C@H](CC(C)C)NC(=O)[C@](C)(CC(C)C)NC(=O)[C@@H](NC(=O)[C@H](CO)NC(=O)[C@H](Cc1ccc(O)cc1)NC(=O)[C@H](CC(=O)O)NC(=O)[C@H](CO)NC(=O)[C@@H](NC(=O)[C@H](Cc1ccccc1)NC(=O)[C@@H](NC(=O)CNC(=O)[C@H](CCC(=O)O)NC(=O)C(C)(C)NC(=O)[C@H](N)Cc1ccc(O)cc1)[C@@H](C)O)[C@@H](C)O)[C@@H](C)CC)[C@@H](C)CC)C(=O)N[C@@H](C)C(=O)NCC(=O)NCC(=O)N1CCC[C@H]1C(=O)N[C@@H](CO)C(=O)N[C@@H](CO)C(=O)NCC(=O)N[C@@H](C)C(=O)N1CCC[C@H]1C(=O)N1CCC[C@H]1C(=O)N1CCC[C@H]1C(=O)N[C@@H](CO)C(N)=O

What was measured:
[1] = biological target: human GLP-1 receptor (GLP-1R) (human, UniProt P43220 24-463); experiment: cell-based or functional assay
[2] = biological target: T1, human gastric inhibitory peptide receptor (GIPR) (human, UniProt P48546 22-466); experiment: cell-based or functional assay
T1 sequence (looked up): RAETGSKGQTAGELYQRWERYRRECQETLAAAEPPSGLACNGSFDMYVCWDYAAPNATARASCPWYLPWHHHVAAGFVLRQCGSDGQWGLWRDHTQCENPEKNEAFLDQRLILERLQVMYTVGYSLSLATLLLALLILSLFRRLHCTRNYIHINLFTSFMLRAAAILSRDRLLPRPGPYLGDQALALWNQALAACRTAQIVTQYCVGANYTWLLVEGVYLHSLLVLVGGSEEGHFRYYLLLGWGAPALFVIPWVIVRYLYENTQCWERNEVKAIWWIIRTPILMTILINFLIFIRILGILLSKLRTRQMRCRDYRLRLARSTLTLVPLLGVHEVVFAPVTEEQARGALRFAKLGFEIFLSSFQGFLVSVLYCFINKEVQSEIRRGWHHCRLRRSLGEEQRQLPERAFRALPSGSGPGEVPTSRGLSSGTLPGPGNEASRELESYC

Binder	hGLP1R cAMP EC50 ratio [1]	hGLP1R cAMP Rel EC50 [1] [nM]	hGIPR cAMP EC50 ratio [2]	hGIPR cAMP Rel EC50 [2] [nM]
B1	0.345	0.184	0.949	0.0745
B2	0.262	0.174	1.29	0.0472
B3	0.487	0.131	2.31	0.0492
B4	0.151	0.303	0.844	0.0718
B5	0.21	0.128	0.604	0.144
B6	0.214	0.121	0.756	0.117
B7	1.86	0.044	1.79	0.0433
B8	0.662	0.124	1.84	0.0422
B9	0.0674	0.373	0.213	0.238
B10	0.183	0.252	0.852	0.0823
B11	0.574	0.0986	3.18	0.0219
B12	0.198	0.127	0.32	0.159
B13	0.265	0.173	1.18	0.0515
B14	0.245	0.102	0.872	0.0827
B15	0.224	0.113	0.373	0.193
